# Reference: patent US20120165244A1, “METHODS FOR BINDING LEWIS Y ANTIGEN” (priority 2008, published 2012)
# B1: rTMD1: recombinant human thrombomodulin N-terminal lectin-like domain (residues Ala1-Ala155) with 6×His tag and c-Myc epitope, Pichia pastoris expressed (protein)
# chain: EFAPAEPQPGGSQCVEHDCFALYPGPATFLNASQICDGLRGHLMTVRSSVAADVISLLLNGDGGVGRRRLWIGLQLPPGCGDPKRLGPLRGFQWVTGDNNTSYSRWARLDLNGAPLCGPLCVAVSAAEATVPSEPIWEEQQCEVKADGFLCEFHFPAYLEDDDDKIEQKLISEEDLNSAVDHHHHHH
# modifications: left off: small tags and cut ends
# What was measured:
# RAW 264.7 cells = test: Western blotting of LPS-induced signaling pathways in RAW 264.7 cells; type: cell-based, murine
# Description: rTMD1 (0-50 μg/mL, equals 0-2.18 nmole/mL) pre-incubated without or with Escherichia coli (E. coli) LPS (LPS O111:B4, Sigma-Aldrich) in the absence or presence of Lewis Y (Le^y; Dextra Laboratories, Reading, UK) for 30 minutes was used to stimulate THP-1 or RAW 264.7 cells. Incubation period included 15 minutes for pIκB and IκB (B-9 and C-21, Santa Cruz Biotechnology, Santa Cruz, Calif., unless otherwise noted), 20 minutes for p38 (C-20) and pp38 (D-8), 30 minutes for ERK1/2 (K-23), pERK1/2 (E-4), lamin B2 (E-3, Zymed Laboratories, San Francisco, Calif.), NF-κB p50 (C-19) and NF-κB p65 nuclear translocation (C-20), and 24 hours for iNOS expression using a specific antibody (N-20).
# E. coli DH5α = test: Bacterial agglutination, FITC-labeled E. coli DH5α; conditions: 20 μg/mL protein, 5 mM CaCl2
# Description: K. pneumoniae and E. coli DH5α (BCRC) were washed twice in 0.1 M sodium bicarbonate buffer (pH 9.6) and incubated with 0.1 mg/mL fluorescein isothiocyanate (FITC) at 37° C. in the dark. Each of 20 μg/mL of rTMD1, non-tagged rTMD1, mammalian rTMD1, and recombinant TM domains 2 and 3 (rTMD23) was co-incubated with FITC-labeled bacteria (1×10^5CFU/mL) in buffer (20 mM Tris, pH 7.4, 0.15 M NaCl, 5 mM CaCl2, 1 mg/mL BSA) with or without 0.2 M mannose or 5 mM EDTA. Samples were individually placed on a glass slide and fluorescently-labeled bacteria were observed microscopically to evaluate agglutination.
# [1] = biological target: T1, binding of LPS binding protein to LPS (Homo sapiens, UniProt P18428); test: Binding of LPS binding protein to LPS; conditions: data not shown
# T1 sequence (P18428 26-481): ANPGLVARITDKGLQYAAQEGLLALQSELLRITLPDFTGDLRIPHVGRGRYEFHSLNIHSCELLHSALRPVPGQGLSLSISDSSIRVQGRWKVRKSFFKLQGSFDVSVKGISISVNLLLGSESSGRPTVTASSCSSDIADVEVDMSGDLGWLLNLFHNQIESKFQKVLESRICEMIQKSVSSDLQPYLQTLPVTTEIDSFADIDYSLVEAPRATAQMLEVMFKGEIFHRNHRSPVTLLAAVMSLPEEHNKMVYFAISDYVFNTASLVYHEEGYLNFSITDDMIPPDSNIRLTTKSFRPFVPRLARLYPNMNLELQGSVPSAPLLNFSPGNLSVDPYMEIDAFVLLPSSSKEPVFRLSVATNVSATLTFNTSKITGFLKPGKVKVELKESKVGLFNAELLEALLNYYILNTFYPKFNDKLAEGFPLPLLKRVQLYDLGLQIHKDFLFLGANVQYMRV
# K. pneumoniae = test: Lethal bacteremia model (K. pneumoniae 5×10^3 CFU/mouse), survival; type: in vivo, Male FVB mice; conditions: single i.v. dose 10 mg/kg; K. pneumoniae 5×10^3 CFU
# Description: Male FVB mice (8-10 weeks old) were used to model sepsis in vivo. The Institutional Animal Care and Use Committee of the National Cheng Kung University approved procedures. In the chronic endotoxemia model, various concentrations of rTMD1 or rTMD proteins in equi-molar amounts were administrated by tail intravenous (i.v.) injection and LPS (20 mg/kg) or K. pneumoniae (5×10^2 CFU/mouse, BCRC) was administrated by intraperitoneal (i.p.) injection. After 6 or 12 hours, mice were sacrificed by pentobarbital anesthesia (50 mg/kg; i.p.). […] The half-life of rTMD1 in the circulation was determined by i.v. injection of rTMD1 (10 mg/kg, equals 436.64 nmole/kg) and serum samples were collected at various time intervals. The levels of rTMD1 in the collected sera were determined by a sandwich ELISA which employed anti-c-Myc monoclonal antibody and TM-H300 as capture and detection antibodies (both from Santa Cruz Biotechnology), respectively. […] Mortality was monitored every 6-12 hours until all mice in either experimental group died. […] Serum samples were collected at various time intervals and the amount of LPS was determined by Limulus amebocyte lysate test (Associates of Cape Cod, E. Falmouth, Mass.). […] Outgrowth of K. pneumoniae was quantified by plating serial dilutions of blood samples on blood agar plates and enumerating colonies after overnight incubation at 37° C.
# [2] = Chronic endotoxemia model (LPS 20 mg/kg i.p.) in mice; type: in vivo, Male FVB mice
# Description: TNF-α in conditioned medium or mouse serum was measured by an enzyme-linked immunosorbent assay (ELISA) (R&D Systems, Minneapolis, Minn.). Accumulation of nitrite in the medium or mouse serum was determined by a colorimetric assay using Griess reagent (Sigma-Aldrich). Blood urea nitrogen (BUN) and creatinine were measured with a Roche D&P modular (Roche Diagnostic Systems, Branchburg, N.J.). Assays were performed according to the manufacturer's protocol.
# Male FVB mice (8-10 weeks old) were used to model sepsis in vivo. The Institutional Animal Care and Use Committee of the National Cheng Kung University approved procedures. In the chronic endotoxemia model, various concentrations of rTMD1 or rTMD proteins in equi-molar amounts were administrated by tail intravenous (i.v.) injection and LPS (20 mg/kg) or K. pneumoniae (5×10^2 CFU/mouse, BCRC) was administrated by intraperitoneal (i.p.) injection. After 6 or 12 hours, mice were sacrificed by pentobarbital anesthesia (50 mg/kg; i.p.). Sera were collected and assayed for TNF-α, NO, BUN, and creatinine, and lung and kidney tissues were removed, fixed with formalin, and embedded in paraffin for histochemical examination. In the lethal sepsis model, rTMD1 (2 mg/kg, equals 87.3 nmole/kg) was i.v.-administrated at 0, 6, 12, and 24 hours after i.p. administration of LPS (40 mg/kg). The half-life of rTMD1 in the circulation was determined by i.v. injection of rTMD1 (10 mg/kg, equals 436.64 nmole/kg) and serum samples were collected at various time intervals. The levels of rTMD1 in the collected sera were determined by a sandwich ELISA which employed anti-c-Myc monoclonal antibody and TM-H300 as capture and detection antibodies (both from Santa Cruz Biotechnology), respectively. For the lethal bacteremia model, rTMD1 (10 mg/kg) was administrated prior to i.p. injection of K. pneumoniae (5×10^3 CFU/mouse). Mortality was monitored every 6-12 hours until all mice in either experimental group died. Experimental procedure of determining LPS half-life is as following. LPS (20 mg/kg) was i.p.-administrated to male FVB mice without or with rTMD1 (10 mg/kg; i.v.). Serum samples were collected at various time intervals and the amount of LPS was determined by Limulus amebocyte lysate test (Associates of Cape Cod, E. Falmouth, Mass.). A further experiment was performed to determine whether rTMD1 affects bacterial clearance. K. pneumoniae (5×10^2 CFU/mouse) was i.p.-administrated to male FVB mice without or with rTMD1 (10 mg/kg; i.v.), and blood samples were collected at various time intervals. Outgrowth of K. pneumoniae was quantified by plating serial dilutions of blood samples on blood agar plates and enumerating colonies after overnight incubation at 37° C.
# [3] = 12 hours after LPS, compared with LPS-treated mice
# [4] = rTMD1 1-5 mg/kg i.v., 6 hours after LPS 20 mg/kg i.p.
molecule,measurement,setting,value
B1,LPS-induced nuclear translocation of NF-κB,RAW 264.7 cells; FIG. 1E,inhibited in a dose-dependent fashion
same,LPS-induced phosphorylation of ERK1/2 and p38,RAW 264.7 cells; FIG. 1F,inhibited
same,LPS-induced phosphorylation and degradation of IκBα,"RAW 264.7 cells; LPS 100 ng/mL, rTMD1 50 μg/mL (2.18 nmole/mL)",totally reversed
same,iNOS induction by LPS,"RAW 264.7 cells; RAW 264.7 cells, FIG. 1G",inhibited
same,agglutination of E. coli DH5α,E. coli DH5α,induced marked agglutination
same,binding of LPS binding protein to LPS,[1],not inhibited
same,mice surviving more than 24 hours,K. pneumoniae,50%
same,pulmonary accumulation of PMNs / LPS-induced inflammatory responses,[2]; 6 hours after LPS administration (FIG. 2C-D),significantly inhibited
same,BUN level,[2]; [3],markedly reduced
same,serum creatinine level,[2]; [3],markedly reduced
same,extent of glomerulonephritis,"[2]; kidney, 12 hours after LPS 20 mg/kg (FIG. 2E)",significantly reduced
same,NO levels in mice,[2]; [4],significantly decreasing levels
same,TNF-α levels in mice,[2]; [4],significantly decreasing levels
